Assay results published in patent US9090686B2, “Antibodies for the treatment of HIV” (Pierre Fabre Medicament, priority 2009, dated 2015).

Columns and labels:
[1] = test system: HIV-1 X4 primary isolate 92UG024; experiment: Single cycle neutralization assay in human PBMC, isolate 92UG024; format: cell-based; parameters: 92UG024 % inhibition of infected cells 90 / 92UG024 % inhibition of infected cells 80: unit not given here; settings: for 92UG024 % inhibition of infected cells 90: IC for 90% inhibition
Experimental: (§1) This assay is performed in 36 h using primary isolates KON, MN and 92UG024 concentrated and diluted accordingly to allow the detection 2% infected CD4 T lymphocytes after 2 days of infection.
(§2) Twenty-five microliters of various dilutions of Mabs 515H7, c515H7 and 301aE5 were incubated for 1 h at 37° C. with 25 μl of virus. Human PBMC (25 μl) at 20×10^6 cells/ml were added to the Mab/virus mixture in a 96-well plate (U-bottom, Costar 3599) and cultured for 36 h in RPMI 1640 10% FCS and 20 U/ml IL-2 (R&D Systems, Minneapolis, Minn.).
(§3) After 2 days of culture, HIV-infected lymphocytes were detected by intracellular staining of viral p24 Ag. Cells were fixed and permeabilized using both Cytofix/Cytoperm and Perm/Wash kits (BD Biosciences) according to the manufacturer and stained with a fluorescent anti-p24 Mab (FITC- or PE-anti-p24, clone KC57; Beckman Coulter/Immunotech, Hialeah, Fla.) used at a 1/160 dilution in Perm/Wash solution added for 15 min at 4° C. After washing in PBS with 3% FBS, PBMC were diluted in 300 μl of PBS before flow cytometry analysis (LSRII; BD Biosciences) with DIVA software (BD Biosciences). The percentage of p24-positive cells in the different samples was determined by gating 20,000 events on a living cell population identified by forward- and side-scatter parameters. The living cell subsets were analyzed with the live/dead solution kit (Invitrogen). The p24 Ag-positive value was obtained after subtraction of background events in mock-infected cells.
The percent of neutralization was defined as the reduction of p24-positive cells compared with control infected wells with no Mab. […]

[2] = test system: HIV-1 X4 primary isolate MN; experiment: Single cycle neutralization assay in human PBMC, isolate MN; format: cell-based; parameters: MN % inhibition of infected cells 90 / MN % inhibition of infected cells 80: unit not given here; settings: for MN % inhibition of infected cells 80: IC for 80% inhibition; for MN % inhibition of infected cells 80 / MN % inhibition of infected cells 90: human PBMC; for MN % inhibition of infected cells 90: IC for 90% inhibition
Experimental: as §1, §2, §3
The percent of neutralization was defined as the reduction of p24-positive cells compared with control infected wells with no Mab. The neutralizing titer was defined as the concentration of antibody (interpolated between successive dilutions performed in triplicate) that allows a 90% decrease in the percentage of infected cells.

[3] = biological target: T1, native form of CXCR4 expressed at the cell surface of monocytes and T lymphocytes (Homo sapiens, UniProt P61073); experiment: FACS binding to peripheral blood mononuclear cells (whole blood); settings: CD3 positive and CD14 positive cells, whole blood of healthy donor
T1 construct: the native form of CXCR4 expressed at the cell surface of monocytes and T lymphocytes; endogenous in cells; host or cells: whole blood (buffy coat) of a healthy donor; CD14+ monocytes and CD3+ T cells
Experimental: Blood was collected as buffy coat from healthy donor. 100 μl of whole blood was incubated with anti-human CXCR4 antibodies (clones 515H7 and 301aE5) at the indicated concentration for 20 minutes at 4° C. Blood was washed three times in PBS-BSA 1%-NaN3 0.01% and incubated with goat anti-human Alexa 488 IgG diluted 1:500 (Invitrogen) for 20 minutes at 4° C. Cells were then washed and incubated with CD14-PE (Caltag) or CD3-PE (Caltag) for 10 minutes at 4° C. and washed three times. Red blood cells were lysed with High-Yield lyse solution (Caltag) for 10 minutes at room temperature. Cells were analyzed immediately using Facscalibur (Becton-Dickinson). CXCR4 expression on monocytes was done on CD14 positive cells and CXCR4 expression on T cell was done on CD3 positives cells (FIG. 1). Results are expressed in Antigen Binding Capacity (ABC).

[4] = test system: HIV-1 primary isolate KON (X4 virus); experiment: HIV-1 KON replication in PHA-activated human PBMC, single cycle neutralization, p24 FACS (Example 5); format: cell-based; settings: HIV-1 KON replication in PBMC, molar value in brackets
Experimental: PBMC from normal donors seronegative for HIV-1 were isolated from buffy coats or cytapheresis by Ficoll-Hypaque gradient centrifugation. PBMC were activated in the presence of PHA in RPMI 1640 cell culture medium containing 25 mM HEPES, 5 ml penicillin (10000 U/ml)-streptomycin (10000 μg/ml) 2 mM L-glutamine, supplemented with 10% heat-inactivated FCS and were used as cellular targets in a single cycle neutralization assay. HIV-1 replication in primary human PBMC was performed by analyzing intracellular staining of viral p24 antigen by FACS analysis. Briefly, 25 μl per well of various dilutions of Mabs 515H7, 301aE5 and 12G5 (R&D Systems) or culture medium as control (RPMI 1640, 10% FCS, 0.1% IL-2), were incubated for 1 h at 37° C. with 25 μl per well of HIV-1 KON X4 primary isolate dilution, in duplicate. PHA-activated human PBMC (25 μl/well) at 20×10^6 cells/ml were added to the Mab/virus mixture in a 96-well plate (U-bottom, Costar 3599) and cultured for 24 to 36 hours at 37° C. in RPMI 1640 10% FCS and 0.1% IL-2. […] To detect HIV-infected PBMC, intracellular staining of viral p24 antigen was performed and analyzed by flow cytometry. […] The percentage of p24-positive cells in the different samples was determined by gating 20,000 events on a living cell population. The living cell subsets were analyzed for p24 expression relative to background staining of uninfected cells. […]

T1 sequence (P61073 whole entry): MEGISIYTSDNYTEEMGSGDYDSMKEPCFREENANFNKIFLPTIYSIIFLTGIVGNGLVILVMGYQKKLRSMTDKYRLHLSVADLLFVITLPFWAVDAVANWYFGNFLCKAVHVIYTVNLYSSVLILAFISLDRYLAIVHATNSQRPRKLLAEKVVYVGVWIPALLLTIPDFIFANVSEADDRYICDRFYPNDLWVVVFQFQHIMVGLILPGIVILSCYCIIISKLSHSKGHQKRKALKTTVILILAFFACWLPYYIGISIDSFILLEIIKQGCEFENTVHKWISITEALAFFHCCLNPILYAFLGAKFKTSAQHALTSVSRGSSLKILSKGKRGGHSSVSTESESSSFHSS

| Molecule | inhibition of HIV-1 X4 92UG024 primary isolate replication in PBMC (in words) [1] | 92UG024 % inhibition of infected cells 90 ([1]; human PBMC) | inhibition of HIV-1 X4 MN primary isolate replication in PBMC (in words) [2] | MN % inhibition of infected cells 80 [2] | MN % inhibition of infected cells 90 [2] | staining of T lymphocytes and monocytes [3] | IC90 [4] [µM] | 92UG024 % inhibition of infected cells 80 ([1]; IC for 80% inhibition, human PBMC) |
| --- | --- | --- | --- | --- | --- | --- | --- | --- |
| 515H7: murine anti-CXCR4 monoclonal antibody; light chain variable domain SEQ ID No. 7, heavy chain variable domain SEQ ID No. 8 (antibody, listed as Mus musculus, V domains shown) VH: EVNLVESGGGLVQPGGSLRLSCATSGFTFTDNYMSWVRQPPGKALEWLGFIRNKANGYTTDYSASVRGRFTISRDNSQSILYLQMNALRAEDSATYYCARDVGSNYFDYWGQGTTLTVSS VL: DIVMSQSPSSLAVSAGEKVTMSCKSSQSLFNSRTRKNYLAWYQQKPGQSPKLLIYWASARDSGVPARFTGSGSETYFTLTISRVQAEDLAVYYCMQSFNLRTFGGGTKLEIK | able to inhibit | 10 | able to inhibit | 1.5 | 10 | stained both T lymphocytes (FIG. 2A) and monocytes (FIG. 2B) | 0.066 | – |
| 301aE5: murine anti-CXCR4 monoclonal antibody; light chain variable domain SEQ ID No. 34, heavy chain variable domain SEQ ID No. 35 (antibody, listed as Mus musculus, V domains shown) VH: QVQLKESGPGLVAPSQSLSITCTVSGFSLTDYGVYWVRQPPGKGLEWLGMIWGDGTTDYNSALKSRLSISKDNSKSQVFLKMNTLQTDDTARYYCARGRQFGFDYWGQGTTLTVSS VL: DIVMSQSPSSLAVSAGEKVTMRCKSSQSLFNSRTRKNYLAWYQQKPGQSPKLLIFWASIRESGVPDRFTGSGSGTDFTLTISSVQAEDLAVYYCKQSYNLRTFGGGTKLEIK | able to inhibit | >150 | able to inhibit | 150 | >150 | stained both T lymphocytes (FIG. 2A) and monocytes (FIG. 2B) | 1 | 150 |
| c515H7: chimeric antibody 515H7: murine variable domains fused to human Ckappa and IgG1/IgG2/IgG4 constant domains; isotype tested not stated (antibody, V domains shown) VH: EVNLVESGGGLVQPGGSLRLSCATSGFTFTDNYMSWVRQPPGKALEWLGFIRNKANGYTTDYSASVRGRFTISRDNSQSILYLQMNALRAEDSATYYCARDVGSNYFDYWGQGTTLTVSS VL: DIVMSQSPSSLAVSAGEKVTMSCKSSQSLFNSRTRKNYLAWYQQKPGQSPKLLIYWASARDSGVPARFTGSGSETYFTLTISRVQAEDLAVYYCMQSFNLRTFGGGTKLEIK | able to inhibit | 15 | able to inhibit | 1 | 15 | – | – | – |
